Results on twelve molecules are retold here after patent US20140243272A1 (ALPHABETA, published 2014).

Sequences and labels used below:
B1: cellulose-bound decamer of F (peptide)
peptide: FFFFFFFFFF
notes: also called stretch of F
B4: cellulose-bound decamer of Y (peptide)
peptide: YYYYYYYYYY
notes: also called stretch of Y
B5: cellulose-bound decamer of G (peptide)
peptide: GGGGGGGGGG
notes: also called G counterpart
B7: LLLLLLLLLL, poly-leucine 10-mer peptide, spot 17 (peptide)
peptide: LLLLLLLLLL
notes: also called decamer of L
B8: cellulose-bound decamer of M (peptide)
peptide: MMMMMMMMMM
notes: also called stretch of M
B9: cellulose-bound decamer of W (peptide)
peptide: WWWWWWWWWW
notes: also called W counterpart
B10: cellulose-bound decamer of I (peptide)
peptide: IIIIIIIIII
notes: also called stretch of I
B11: cellulose-bound decamer of P (peptide)
peptide: PPPPPPPPPP
notes: also called P counterpart
B12: AAAAAAAAAA, poly-alanine 10-mer peptide, spot 18 (peptide)
peptide: AAAAAAAAAA
notes: also called decamer of A

Assay [1] deals with T1, ER-luminal part of the human Bri protein (human, UniProt Q9Y287 90-236, limits assumed).
T1 construct: domain: ER-luminal part
T1 sequence (looked up): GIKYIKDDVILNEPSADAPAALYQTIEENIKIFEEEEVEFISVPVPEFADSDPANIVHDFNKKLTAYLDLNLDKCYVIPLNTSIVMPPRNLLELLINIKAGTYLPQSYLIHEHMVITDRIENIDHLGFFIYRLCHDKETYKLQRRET
Description: cellulose-bound decamer SPOT membrane, control. On the procedure: (§1) After blocking with 2% BSA for one hour and washing with T-TBS 4×1 h, the membranes were incubated with HRP-conjugated S-protein (Novagen, Madison, Wis.) diluted 1:5000.

In assay [2] the target is B7. Put plainly: cellulose-bound decamer SPOT membrane. On the procedure:
as §1

Assay [3] has as its target B10. Put plainly: cellulose-bound decamer SPOT membrane. On the procedure: as §1
The target in assay [4] is B1. Description: cellulose-bound decamer SPOT membrane. On the procedure: as §1
The target of assay [5] is B8. Put plainly: cellulose-bound decamer SPOT membrane. On the procedure:
as §1

Assay [6] deals with B4. Put plainly: cellulose-bound decamer SPOT membrane. On the procedure:
as §1

For assay [7], the target named is T2, LVVVVIVGAL (positions 22-31 in SP-C^I23V), spots 21 and 23 (human).
T2 construct: also called spot 21; spot 23
T2 peptide: LVVVVIVGAL
Put plainly: peptide SPOT membrane, S-protein-HRP, ECL. On the procedure: (§2) SPOT membranes (Frank R, J Immunol Meth, 267:13-26, 2002), containing 10-residue fragments derived from SP-C(SP-C^I23V) were purchased from Sigma Genosys (Cambridge, England). […] The membranes were then blocked with 2% BSA in TBS for one hour. After washing with T-TBS 4×1 h, the membranes were incubated with HRP-conjugated S-protein (Novagen, Madison, Wis.) diluted 1:5000 in T-TBS containing 2% BSA. The membranes were then washed again with T-TBS 4×1 h and binding was visualized by ECL according to the manufacturer's instructions.

For assay [8], the target named is B7. Put plainly: cellulose-bound decamer SPOT membrane, control. On the procedure: as §1
For assay [9], the target named is B12. Description: cellulose-bound decamer SPOT membrane, control. On the procedure: as §1
Assay [10] deals with B10. Description: cellulose-bound decamer SPOT membrane, control. On the procedure:
as §1

Assay [11] deals with B1. Description: cellulose-bound decamer SPOT membrane, control. On the procedure: as §1
The target in assay [12] is B8. Put plainly: cellulose-bound decamer SPOT membrane, control. On the procedure: as §1
Assay [13] concerns the target B4. Put plainly: cellulose-bound decamer SPOT membrane, control. On the procedure: as §1
Assay [14] concerns the target B9. Put plainly: cellulose-bound decamer SPOT membrane, control. On the procedure:
as §1

The target of assay [15] is B5. Put plainly: cellulose-bound decamer SPOT membrane, control. On the procedure:
as §1

Assay [16] concerns the target B11. Description: cellulose-bound decamer SPOT membrane, control. On the procedure:
as §1

In assay [17] the target is T3, KRLLLLLLLL, Leu-substituted version of SP-C 11-20, spot 8 (human).
T3 peptide: KRLLLLLLLL
Description: peptide SPOT membrane, spot 8. On the procedure: as §2

Assay [18] has as its target T4, RLLLLLLLLL, Leu-substituted version of SP-C 12-21, spot 11 (human).
T4 peptide: RLLLLLLLLL
Put plainly: peptide SPOT membrane, spot 11. On the procedure:
as §2

Assay [19] concerns the target T5, KRAAAAAAAA, Ala-substituted version of SP-C 11-20, spot 9 (human).
T5 peptide: KRAAAAAAAA
Put plainly: peptide SPOT membrane, S-protein-HRP, ECL. On the procedure:
as §2

Assay [20] has as its target T6, RAAAAAAAAA, Ala-substituted version of SP-C 12-21, spot 12 (human).
T6 peptide: RAAAAAAAAA
Put plainly: peptide SPOT membrane, S-protein-HRP, ECL. On the procedure:
as §2

The target in assay [21] is B12. Description: peptide SPOT membrane, S-protein-HRP, ECL. On the procedure: as §2
Assay [22] deals with B9. Description: cellulose-bound decamer SPOT membrane, S-protein-HRP, ECL. On the procedure: as §1
For assay [23], the target named is B5. Described as above. On the procedure:
as §1

The target in assay [24] is B11. The assay is described as above. On the procedure:
as §1

Assay [25] concerns the target B7. Description: cellulose-bound decamer SPOT membrane, 1 µg/ml protein, S-protein-HRP, ECL. On the procedure: as §1
Assay [26] addresses B10. The description is as above. On the procedure:
as §1

The target in assay [27] is B1. The assay is described as above. On the procedure: as §1
Assay [28] deals with B8. The assay is described as above. On the procedure: as §1
Assay [29] concerns the target B4. Described as above. On the procedure: as §1

B1: the binding result in assay [1] is on record as “no binding”.

B2: Recombinant human CTproSP-CBrichos (human proSP-C^94-197), S-tagged (other)
chain: FSIGSTGLVVYDYQQLLIAYKPAPGTCCYIMKIAPESIPSLEALNRKVHNFQMECSLQAKPAVPTSKLGQAEGRDAGSAPSGGDPAFLGMAVNTLCGEVPLYYI
notes: also called Brichos domain of human CTproSP-C; Brichos region; not shown: S-tag and vector residues from pET-32c left after thrombin cleavage
Take B2: the binding result in [2], in [3], in assay [4], in assay [5] and in assay [6] was “binds” in each case.

B3: Recombinant human CTproSP-C^L188Q, S-tagged (other)
chain: HMSQKHTEMVLEMSIGAPEAQQRLALSEHLVTTATFSIGSTGLVVYDYQQLLIAYKPAPGTCCYIMKIAPESIPSLEALNRKVHNFQMECSLQAKPAVPTSKLGQAEGRDAGSAPSGGDPAFLGMAVNTQCGEVPLYYI
notes: also called mutant human CTproSP-C^L188Q; not shown: S-tag left after thrombin cleavage
On to B3, for which the binding result in assay [7] was “no binding (tested: 1 µg/ml)”; in [8], “no binding”; in assay [9] it was “no binding”; in assay [10], “no binding”; in assay [11], “no binding”; in assay [12] it was “no binding”. In addition, the binding result in [13], in [14], in assay [15] and in assay [16] was “no binding” in each case.
For the molecule B4, the binding result in assay [1] is reported as “no binding”.
B5: the binding result in assay [1] is “no binding”.

B6: S-tagged recombinant human CTproSP-C (proSP-C^59-197) (other)
chain: GSGMKETAAAKFERQHMDSPDLGTDDDDKAMAHMSQKHTEMVLEMSIGAPEAQQRLALSEHLVTTATFSIGSTGLVVYDYQQLLIAYKPAPGTCCYIMKIAPESIPSLEALTRKVHNFQMECSLQAKPAVPTSKLGQAEGRDAGSAPSGGDPAFLGMAVSTLCGEVPLYYI
notes: SEC and ESI-MS show mainly trimers and oligomers of trimers; also called CTC; C-terminal domain of lung surfactant protein C precursor
As for B6, the binding result was “binds” in assay [17]; “binds” in assay [18]; “no binding (tested: 1 µg/ml)” in [19]; “no binding (tested: 1 µg/ml)” in assay [20]; “no binding (tested: 1 µg/ml)” in assay [21]; “no binding (tested: 1 µg/ml)” in [22]. Further, the binding result in assay [23] is listed as “no binding (tested: 1 µg/ml)”; in assay [24] it was “no binding (tested: 1 µg/ml)”; in assay [25], “binds”; in assay [26], “binds”; in assay [27] it was “binds”; in assay [28], “binds”. Moreover, the binding result in [29] was “binds”.
With B7, in assay [1], the binding result is listed as “no binding”.
Same read-out and setting: next, B8: “no binding”.
Same read-out and setting: next, B9: “no binding”; B10: “no binding”.
For B11, in [1], the binding result is recorded as “no binding”.
On the same count and under the same terms, next, B12: “no binding”.
